Data as given in IntAct's records for PubMed 22153076.

B1: SH3 domain-binding protein 2 (Mus musculus), Q06649 (parent)
chain: MAAEEMQWPVPMKAIGAQNLLTMPGGVAKAGYLHKKGGTQLQLLKWPLRFVIIHKRCIYYFKSSTSASPQGAFSLSGYNRVMRAAEETTSNNVFPFKIIHISKKHRTWFFSASSEDERKSWMAFVRREIGHFHEKKELPLDTSDSSSDTDSFYGAVERPIDISLSSYPMDNEDYEHEDEDDSYLEPDSPGPMKLEDALTYPPAYPPPPVPVPRKPAFSDLPRAHSFTSKSPSPLLPPPPPKRGLPDTGSAPEDAKDALGLRRVEPGLRVPATPRRMSDPPMSNVPTVPNLRKHPCFRDSVNPGLEPWTPGHGTSSVSSSTTMAVATSRNCDKLKSFHLSSRGPPTSEPPPVPANKPKFLKIAEEPSPREAAKFAPVPPVAPRPPVQKMPMPEATVRPAVLPRPENTPLPHLQRSPPDGQSFRGFSFEKARQPSQADTGEEDSDEDYEKVPLPNSVFVNTTESCEVERLFKATDPRGEPQDGLYCIRNSSTKSGKVLVVWDESSNKVRNYRIFEKDSKFYLEGEVLFASVGSMVEHYHTHVLPSHQSLLLRHPYGYAGPR

Variants of: B1
Details: with rn146_human RNF146, Q9NTX7
rn146_human RNF146, Q9NTX7, sequence (Q9NTX7 whole entry): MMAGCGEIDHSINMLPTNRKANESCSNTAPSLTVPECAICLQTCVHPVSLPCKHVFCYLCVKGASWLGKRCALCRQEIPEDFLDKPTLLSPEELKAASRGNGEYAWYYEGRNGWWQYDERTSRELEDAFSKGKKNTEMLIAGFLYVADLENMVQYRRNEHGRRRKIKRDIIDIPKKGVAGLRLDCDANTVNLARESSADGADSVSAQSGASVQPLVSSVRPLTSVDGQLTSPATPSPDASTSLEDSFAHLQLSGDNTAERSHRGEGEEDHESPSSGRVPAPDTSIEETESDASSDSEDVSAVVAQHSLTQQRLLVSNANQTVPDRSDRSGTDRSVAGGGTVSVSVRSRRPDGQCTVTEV

effect of a mutation on the interaction | Variant
decreasing interaction | R413Q

Variants of: B1
Details: with tnks1_human TNKS

effect of a mutation on the interaction | Variant
disrupting interaction | R413Q
